Measurements reported in patent US20160264649A1.

Legend:
Test in all cases: cell-based or functional assay
[1] = target: HIV-1 Env of isolate 6535.3 (HIV-1)
[2] = target: HIV-1 Env of isolate 92 BR 020 (HIV-1)
[3] = target: HIV-1 Env of isolate 93IN905 (HIV-1)
[4] = target: HIV-1 Env of isolate 93MW959 (HIV-1)
[5] = target: HIV-1 Env of isolate 93TH305 (HIV-1)
[6] = target: HIV-1 Env of isolate 97ZA012 (HIV-1)
[7] = target: HIV-1 Env of isolate 98IN022 (HIV-1)
[8] = target: HIV-1 Env of isolate APV_13 (HIV-1)
[9] = target: HIV-1 Env of isolate APV_17 (HIV-1)
[10] = target: HIV-1 Env of isolate APV_6 (HIV-1)
[11] = target: HIV-1 Env of isolate CAAN.A2 (HIV-1)
[12] = target: HIV-1 Env of isolate JRCSF (HIV-1) (UniProt P20871)
[13] = target: HIV-1 Env of isolate JRFL (HIV-1)
[14] = target: HIV-1 Env of isolate MG RM-C-020 (HIV-1)
[15] = target: HIV-1 Env of isolate MG RM-C-022 (HIV-1)
[16] = target: HIV-1 Env of isolate MG RM-C-023 (HIV-1)
[17] = target: HIV-1 Env of isolate MG RM-C-024 (HIV-1)
[18] = target: HIV-1 Env of isolate MG RM-C-025 (HIV-1)
[19] = target: HIV-1 Env of isolate MG RM-C-026 (HIV-1)
[20] = target: HIV-1 Env of isolate MG RM-C-027 (HIV-1)
[21] = target: HIV-1 Env of isolate MG RM-C-028 (HIV-1)
[22] = target: HIV-1 Env of isolate MGRM-Chronic-B-001 (HIV-1)
[23] = target: HIV-1 Env of isolate MGRM-Chronic-B-002 (HIV-1)
[24] = target: HIV-1 Env of isolate MGRM-Chronic-B-003 (HIV-1)
[25] = target: HIV-1 Env of isolate MGRM-Chronic-B-004 (HIV-1)
[26] = target: HIV-1 Env of isolate MGRM-Chronic-B-008 (HIV-1)
[27] = target: HIV-1 Env of isolate MGRM-Chronic-B-010 (HIV-1)
[28] = target: HIV-1 Env of isolate MGRM-Chronic-B-011 (HIV-1)
[29] = target: HIV-1 Env of isolate MGRM-Chronic-B-012 (HIV-1)
[30] = target: HIV-1 Env of isolate MGRM-Chronic-B-017 (HIV-1)
[31] = target: HIV-1 Env of isolate MGRM-Chronic-B-018 (HIV-1)
[32] = target: HIV-1 Env of isolate MGRM-Chronic-B-020 (HIV-1)
[33] = target: HIV-1 Env of isolate MGRM-Chronic-B-023 (HIV-1)
[34] = target: HIV-1 Env of isolate MGRM-Chronic-B-024 (HIV-1)
[35] = target: HIV-1 Env of isolate NL43 (HIV-1)
[36] = target: HIV-1 Env of isolate PVO.4 (HIV-1)
[37] = target: HIV-1 Env of isolate QH0692.42 (HIV-1)
[38] = target: HIV-1 Env of isolate SC422661.8 (HIV-1)
[39] = target: HIV-1 Env of isolate SF162 (HIV-1) (UniProt P19550)
[40] = target: HIV-1 Env of isolate THR0.18 (HIV-1)
[41] = target: HIV-1 Env of isolate TRJ04551.58 (HIV-1)
[42] = target: HIV-1 Env of isolate TRO.11 (HIV-1)
[43] = target: HIV-1 Env of isolate VLGCB3 (HIV-1)

PGT-123 monoclonal antibody (4858_P08)
neutralization IC50 [1]: 0.004 µg/mL
neutralization IC50 [2]: 0.008 µg/mL
neutralization IC50 [3]: 0.004 µg/mL
neutralization IC50 [4]: 0.011 µg/mL
neutralization IC50 [5]: 0.008 µg/mL
neutralization IC50 [6]: 0.002 µg/mL
neutralization IC50 [7]: 0.011 µg/mL
neutralization IC50 [8]: 0.138 µg/mL
neutralization IC50 [9]: 0.114 µg/mL
neutralization IC50 [10]: 0.023 µg/mL
neutralization IC50 [11]: 0.015 µg/mL
neutralization IC50 [12]: 0.046 µg/mL
neutralization IC50 [13]: 0.014 µg/mL
neutralization IC50 [14]: > 50 µg/mL
neutralization IC50 [15]: 0.01 µg/mL
neutralization IC50 [16]: 0.011 µg/mL
neutralization IC50 [17]: 0.195 µg/mL
neutralization IC50 [18]: 13.3 µg/mL
neutralization IC50 [19]: 0.001 µg/mL
neutralization IC50 [20]: 0.02 µg/mL
neutralization IC50 [21]: 0.402 µg/mL
neutralization IC50 [22]: 0.15 µg/mL
neutralization IC50 [23]: 0.234 µg/mL
neutralization IC50 [24]: 0.008 µg/mL
neutralization IC50 [25]: 0.008 µg/mL
neutralization IC50 [26]: 0.01 µg/mL
neutralization IC50 [27]: 0.009 µg/mL
neutralization IC50 [28]: > 50 µg/mL
neutralization IC50 [29]: 0.227 µg/mL
neutralization IC50 [30]: > 50 µg/mL
neutralization IC50 [31]: > 50 µg/mL
neutralization IC50 [32]: 0.005 µg/mL
neutralization IC50 [33]: 0.055 µg/mL
neutralization IC50 [34]: > 50 µg/mL
neutralization IC50 [35]: > 50 µg/mL
neutralization IC50 [36]: 0.105 µg/mL
neutralization IC50 [37]: 0.158 µg/mL
neutralization IC50 [38]: 0.039 µg/mL
neutralization IC50 [39]: 0.005 µg/mL
neutralization IC50 [40]: > 50 µg/mL
neutralization IC50 [41]: 16.9 µg/mL
neutralization IC50 [42]: 0.008 µg/mL
neutralization IC50 [43]: 0.004 µg/mL

PGT-125 monoclonal antibody (5123_A06)
neutralization IC50 [1]: 0.01 µg/mL
neutralization IC50 [2]: 0.016 µg/mL
neutralization IC50 [3]: 0.009 µg/mL
neutralization IC50 [4]: 37.5 µg/mL
neutralization IC50 [5]: 0.008 µg/mL
neutralization IC50 [6]: 2.46 µg/mL
neutralization IC50 [7]: 22.1 µg/mL
neutralization IC50 [8]: 0.007 µg/mL
neutralization IC50 [9]: 8.06 µg/mL
neutralization IC50 [10]: 0.021 µg/mL
neutralization IC50 [11]: 5.47 µg/mL
neutralization IC50 [12]: 0.004 µg/mL
neutralization IC50 [13]: 0.009 µg/mL
neutralization IC50 [14]: > 50 µg/mL
neutralization IC50 [15]: 1.23 µg/mL
neutralization IC50 [16]: 1.31 µg/mL
neutralization IC50 [17]: > 50 µg/mL
neutralization IC50 [18]: 42.5 µg/mL
neutralization IC50 [19]: 0.005 µg/mL
neutralization IC50 [20]: > 50 µg/mL
neutralization IC50 [21]: 14 µg/mL
neutralization IC50 [22]: > 50 µg/mL
neutralization IC50 [23]: 0.064 µg/mL
neutralization IC50 [24]: 0.157 µg/mL
neutralization IC50 [25]: 0.007 µg/mL
neutralization IC50 [26]: > 50 µg/mL
neutralization IC50 [27]: 0.006 µg/mL
neutralization IC50 [28]: 3.23 µg/mL
neutralization IC50 [29]: 0.036 µg/mL
neutralization IC50 [30]: > 50 µg/mL
neutralization IC50 [31]: > 50 µg/mL
neutralization IC50 [32]: 0.087 µg/mL
neutralization IC50 [33]: > 50 µg/mL
neutralization IC50 [34]: > 50 µg/mL
neutralization IC50 [35]: > 50 µg/mL
neutralization IC50 [36]: 0.042 µg/mL
neutralization IC50 [37]: 0.048 µg/mL
neutralization IC50 [38]: 30.1 µg/mL
neutralization IC50 [39]: 0.004 µg/mL
neutralization IC50 [40]: > 50 µg/mL
neutralization IC50 [41]: 0.019 µg/mL
neutralization IC50 [42]: 0.111 µg/mL
neutralization IC50 [43]: 0.015 µg/mL

PGT-126 monoclonal antibody (5141_B17)
neutralization IC50 [1]: 0.022 µg/mL
neutralization IC50 [2]: 0.015 µg/mL
neutralization IC50 [3]: 0.015 µg/mL
neutralization IC50 [4]: 9.44 µg/mL
neutralization IC50 [5]: 0.013 µg/mL
neutralization IC50 [6]: 0.042 µg/mL
neutralization IC50 [7]: 0.279 µg/mL
neutralization IC50 [8]: 0.012 µg/mL
neutralization IC50 [9]: 0.353 µg/mL
neutralization IC50 [10]: 0.007 µg/mL
neutralization IC50 [11]: 0.273 µg/mL
neutralization IC50 [12]: 0.008 µg/mL
neutralization IC50 [13]: 0.014 µg/mL
neutralization IC50 [14]: > 50 µg/mL
neutralization IC50 [15]: 0.96 µg/mL
neutralization IC50 [16]: 0.065 µg/mL
neutralization IC50 [17]: > 50 µg/mL
neutralization IC50 [18]: 0.786 µg/mL
neutralization IC50 [19]: 0.007 µg/mL
neutralization IC50 [20]: 15.6 µg/mL
neutralization IC50 [21]: 0.196 µg/mL
neutralization IC50 [22]: > 50 µg/mL
neutralization IC50 [23]: 0.078 µg/mL
neutralization IC50 [24]: 0.041 µg/mL
neutralization IC50 [25]: 0.01 µg/mL
neutralization IC50 [26]: 5.89 µg/mL
neutralization IC50 [27]: 0.005 µg/mL
neutralization IC50 [28]: 0.108 µg/mL
neutralization IC50 [29]: 0.027 µg/mL
neutralization IC50 [30]: > 50 µg/mL
neutralization IC50 [31]: 0.052 µg/mL
neutralization IC50 [32]: 0.021 µg/mL
neutralization IC50 [33]: > 50 µg/mL
neutralization IC50 [34]: > 50 µg/mL
neutralization IC50 [35]: > 50 µg/mL
neutralization IC50 [36]: 0.017 µg/mL
neutralization IC50 [37]: 0.048 µg/mL
neutralization IC50 [38]: 0.119 µg/mL
neutralization IC50 [39]: 0.003 µg/mL
neutralization IC50 [40]: > 50 µg/mL
neutralization IC50 [41]: 0.025 µg/mL
neutralization IC50 [42]: 0.041 µg/mL
neutralization IC50 [43]: 0.007 µg/mL
